Measured values taken from the nanobody polyreactivity screen of Harvey et al. (2022).

assay: yeast display, Sf9 membrane polyspecificity reagent, FACS + sequencing; frameworks hold sequencing errors
How it was run: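 Galactose induction of a Saccharomyces cerevisiae BJ5465 synthetic nanobody display library ran 36–48 hours. The cells were then stained for 1 hour at 4 °C with 10% biotinylated, detergent-solubilized Sf9 membrane reagent, pulled down on streptavidin microbeads and FACS-sorted into low and high (top ~1%) gates on expression and reagent-binding fluorescence. Labels for polyreactivity follow the gate of origin.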

Row | Sequence | polyreactivity (PSR sort gate)
1 | QVQLVESGGGLVQAGGSLRLSCAASGPTFLYNAMGWYRQAPGKERELVAAISRSAVSTYYADSVKGRFTISRDNAKNTVYLQINSLKPDDTAVYYCSADYRGRYATYRSYASVLYDYWGQGTQVTVSW | low polyreactivity
2 | QVQLVESGGGLVQAGGSLRLSCAASGPTFPFNAMGWYRQAPGKERELVAAISWRDGRTYYADSVKGRFTISRDYAKNTVYLQMNSLKPEDTAVYYCNVVKRRSDWGMDYWGQGTQVTVSS | high polyreactivity
3 | QVQLVESGGGLVQAGGSLRLSCAASGPTFPVKSMGWYRQAPGKERELVAAISWRDGRTYYADSVKGRFTISRDNAKNTVYLQMNSLKPEDTAVYYCNVVKRRSDWGMDYWGQGTQVTVSS | high polyreactivity
4 | QVQLVESGGGLVQAGGSLRLSCAASGPTFSQNVMGWYRQAPGKERELVAGISSGDITDYADSVKGRFTISRDNAKNTVYLQMNSPKPEDTAVYYCTYYGKSGGYRYTYYYWGQGTQVTVSS | high polyreactivity
5 | QVQLVESGGGLVQAGGSLRLSCAASGRFFRYNAMGWYRQAPGKERELVAAIRYSGTSTYYADSVKGRFTISRDNAKNTVYFQMNSLKPEDTAVYYCAAYKRYYYGYDYWGQGTQVTVSS | high polyreactivity
6 | QVQLVESGGGLVQAGGSLRLSCAASGRIDAYYAMGWYRQAPGKERELVAGISQRGSRTYYADSVKGRFTISRDNAKNTVYLQMNSLKPEDTAVYYCAARDRRSVTMDYWGQGTQVTVSS | high polyreactivity
7 | QVQLVESGGGLVQAGGSLRLSCAASGRIFAAYAMGWYRQAPGKERELVAAISWSGANTYYADSVKGRFTISRDNAKNTVYLQMNSLKPEDTAVYYCATLSKSYGVRRYKSDYWGQGTQVTVSS | high polyreactivity
8 | QVQLVESGGGLVQAGGSLRLSCAASGRIFADNAMGWYRQAPGKERELVATISRNGGRTSYADSVKGRFTISRDNAKNTVYLQMNSLNPEVTAVYYCAVRAPGSSEGYYWGQGSQVTVSS | low polyreactivity
9 | QVQLVESGGGLVQAGGSLRLSCAASGRIFAFYALGWYIQAPGKERELVAAISWSDDITYYADSVKGRFTISRDNAKNTVYSQMNSLKPEDTAVYYCAYRRRGYAFSSDYWGQGTQVTVSS | high polyreactivity
10 | QVQLVESGGGLVQAGGSLRLSCAASGRIFAGYAMGWYRQAPGKERELVAAISDGGTTNYADSVKGRFTISRDNAKNTVYLQMNSLKPEDTAVYYCAAKSRTYQSYYYWGQGTQVTVSS | low polyreactivity
11 | QVQLVESGGGLVQAGGSLRLSCAASGRIFAHNAMGWYRQAPGKERELVAAINSGGSTRYADSVKGRFTISRDNAKNTVYLQMNSLKPEDTAVYYCARGPKGYYFARYGYWGQGTQVTVSS | high polyreactivity
12 | QVQLVESGGGLVQAGGSLRLSCAASGRIFAHYAMGWYRQAPGKERELVADITDGGSTYYADSVKGRFTISRDNAKNTVYLQMNSLKPEDTAVYYVATRRGPWPSEYDSWGQGTQVTVSS | low polyreactivity
13 | QVQLVESGGGLVQAGGSLRLSCAASGRIFAIYAMGWYRQAPGKERELVAGITYSAGSTYYADSVKGRFTISRDNAKNTVYLQMNSLKPEDTAVYYCAALEYNSHRYGYDYWGQGTQVTVSS | low polyreactivity
14 | QVQLVESGGGLVQAGGSLRLSCAASGRIFAKNAMGWYRQAPGKERELVAAINHSGGSTYYADSVKGRFTISRDNAKNTVYLQMNSLKPEDTAVYYCAARGLTTRSPFYYWGQGTQVTVSS | high polyreactivity
15 | QVQLVESGGGLVQAGGSLRLSCAASGRIFAPKAMGWYRQAPGKERELVADINFSGDSTYYADSVKGRFTISRDNAKNTVYLQMNSLKPEDTAVYYCAADISLVSYYYWGQGTQVTVSS | low polyreactivity
16 | QVQLVESGGGLVQAGGSLRLSCAASGRIFAPYAKGRYRQAPGKERELVAAIRWRGGSTSYADSVKGRFTISRDNAKNTVYLQLNSLKPEDSAVYSCNADYGFSFYWYDYWGHGTQVTVSS | low polyreactivity

Row | Sequence | polyreactivity (PSR sort gate)
17 | QVQLVESGGGLVQAGGSLRLSCAASGRIFARNAMGWYRQAPGKEREFVAAITHSGGNTYYADSVKGRFTISRDNAKNTVYLQMNSLKPEATAVYYCAKDYRSTKYDYWGQGTQVTVSS | low polyreactivity
18 | QVQLVESGGGLVQAGGSLRLSCAASGRIFASNAMGWYRQAPGKERELVAGISRNGGSTFYADSVKGRFTISRDNAKNTVYLQMNSLKPEDTAVYYCARYYTHSGGYRDRIYYYWGQGTQVTVSS | low polyreactivity
19 | QVQLVESGGGLVQAGGSLRLSCAASGRIFASYAMGWYRQAPGKERELVAAISAGGGSRTYYADSVKGRFTISRDNAKNTVYLQMNSLKPEDTAVYYCNTANSWLRQYYYWGQGTQVTVSS | high polyreactivity
20 | QVQLVESGGGLVQAGGSLRLSCAASGRIFATNAMGWYIQAPGKERELVAAISWDGGSTYYADSVKGRFTISRDNAKNTVYLQMNSLKPEDTAVYYCNKVLYYAYDYWGQGTQVTVSS | low polyreactivity
21 | QVQLVESGGGLVQAGGSLRLSCAASGRIFAVNALGWYRQAPGPERELVATIRGSGTSTYYADSVKGRFTISRDHATNTVYLQMNSLKPEDTAVYYCAKAYNGRYTWRYDYWGQGTQVTVSS | high polyreactivity
22 | QVQLVESGGGLVQAGGSLRLSCAASGRIFAVNTMGWYRQAPGKEREFVAAISDSGGGTYYADSVKGRFTISRDNAKKTVYLQMNSLKPEDTAVYYCNAKGQRSPYSKLEYWGQGTQVTVSS | high polyreactivity
23 | QVQLVESGGGLVQAGGSLRLSCAASGRIFAVYAMGWYRQAPGKERELVAAISWSGGRTYYADSVKGRFTISRDNAKNTVYLQMNSLKPEDTAVYYCNRTPTGSYLYGMDYWGQGTQVTVSS | high polyreactivity
24 | QVQLVESGGGLVQAGGSLRLSCAASGRIFAWDAMGRYRQAPGKERELVAAITWGGGRTYYADSVKGRFTISRDNAKNTVYLQMNSLKPEDTAVYYCAAYSYKEEAYRGVAQERDYWGQGTQVTVSS | low polyreactivity
25 | QVQLVESGGGLVQAGGSLRLSCAASGRIFAWYAMGWYRQSPGKESELVAAISDSGGSTYYADSVKGRFTISRDNAKNTVYLQMNSLKPEDTAVYYCAADQVVYSAYWSDHYDYWGQGTQVTVSS | low polyreactivity
26 | QVQLVESGGGLVQAGGSLRLSCAASGRIFAYNAMGWYREAPGKERELVASITSGGGRTYYADSVKGRFTISRDNAKNTVYLQMNSLKPEDTAVYYCNVDVSLSKFGSVLYDYWGQGTQVTVSS | low polyreactivity
27 | QVQLVESGGGLVQAGGSLRLSCAASGRIFAYNTMGWYRQAHGKEREFVAVITSGGSTNYADSVKGRFTISRDNAKNTVFLLLNSLKPEDTAVYYCAKRPYGRSGGSRYDYWGQGTKVTVSS | high polyreactivity
28 | QVQLVESGGGLVQAGGSLRLSCAASGRIFAYYAMEWYRQAPGKERELVAAITRSGARTYYADSVKGRFTISRDNAKNSVYLQMNSLKPEDTAVYYFAAEGVRIGTRYDYWGQGTQVTVSS | high polyreactivity
29 | QVQLVESGGGLVQAGGSLRLSCAASGRIFAYYAMGWYRQAPGKERELVAAINTSGAPTNYADSVKGRFTISRDNAKNTVYLQMISLKPEDTAVYYCAARRARYHVEYYYWGQGTQVTVSS | high polyreactivity
30 | QVQLVESGGGLVQAGGSLRLSCAASGRIFAYYAMGWYRQAPGKERELVAAISFIGGSTYYADSVKGRFTISRDNAKNTVYLQMNSLKPEDTAVDYCTAGYVRRYSPSSSWRYDYWGQGTQVTVSS | high polyreactivity
31 | QVQLVESGGGLVQAGGSLRLSCAASGRIFAYYAMGWYRQAPGKERELVAAISRGGGSTSYADSVKGRFTISRDNAKNTFYLQMNSLKPEDTAVYYCAKDRGYRYLGDYWGQGTQVTVSS | low polyreactivity
